Target: WXyn43, GH43 β-xylosidase from Weissella sp. strain 92 (full-length enzyme) (Weissella sp. strain 92)
Test: SEC

- stoichiometry N: 4
Substance: WXyn43, GH43 β-xylosidase from Weissella sp. strain 92 (full-length enzyme)

Reference: paper PMC4691288
